{
  "source": "patent US20040209800A1",
  "about": "“Use of mx gtpases in the prognosis and treatment of cancer” (priority 2001, published 2004)",
  "molecules": {"B1": {"name": "MxA: full-length human MxA GTPase, 78 kDa, expressed from a transfected plasmid in PC-3M or LOX cells (protein)", "chain": "MVVSEVDIAKADPAAASHPLLLNGDATVAQKNPGSVAENNLCSQYEEKVRPCIDLIDSLRALGVEQDLALPAIAVIGDQSSGKSSVLEALSGVALPRGSGIVTRCPLVLKLKKLVNEDKWRGKVSYQDYEIEISDASEVEKEINKAQNAIAGEGMGISHELITLEISSRDVPDLTLIDLPGITRVAVGNQPADIGYKIKTLIKKYIQRQETISLVVVPSNVDIATTEALSMAQEVDPEGDRTIGILTKPDLVDKGTEDKVVDVVRNLVFHLKKGYMIVKCRGQQEIQDQLSLSEALQREKIFFENHPYFRDLLEEGKATVPCLAEKLTSELITHICKSLPLLENQIKETHQRITEELQKYGVDIPEDENEKMFFLIDKVNAFNQDITALMQGEETVGEEDIRLFTRLRHEFHKWSTIIENNFQEGHKILSRKIQKFENQYRGRELPGFVNYRTFETIVKQQIKALEEPAVDMLHTVTDMVRLAFTDVSIKNFEEFFNLHRTAKSKIEDIRAEQEREGEKLIRLHFQMEQIVYCQDQVYRGALQKVREKELEEEKKKKSWDFGAFQSSSATDSSMEEIFQHLMAYHQEASKRISSHIPLIIQFFMLQTYGQQLQKAMLQLLQDKDTYSWLLKERSDTSDKRKFLKERLARLTQARRRLAQFPG"}, "B2": {"name": "T103 mutant MxA: FLAG-tagged MxA with threonine 103 mutated to alanine; the mutation inactivates GTPase activity (protein)", "chain": "B1 chain with T103A", "modifications": "left off: small tags and cut ends"}},
  "key": {"[1]": {"tested_on": "PC-3 cells", "assay": "MxA protein induction, immunohistochemistry and Western blot", "assay_type": "cell-based, human", "conditions": "1000 IU of IFN-α/mL, 24 hours", "description": "(§1) PC-3 and PC-3M test cells also were treated with recombinant IFN-α (Novartis Pharma—Basel, Switzerland) (1000 IU of IFN-α/mL), grown for 24 hours, fixed, permeabilized, and subjected to immunohistochemical analysis using anti-MxA antibody and DAPI nuclear counterstaining to locate individual cells. […] Western blotting with […] using 100 μg cell lysates confirmed IFN-α-induced increase in MxA expression in both cell lines."}, "[2]": {"tested_on": "PC-3M cells", "assay": "MxA protein induction, immunohistochemistry and Western blot", "assay_type": "cell-based, human", "conditions": "1000 IU of IFN-α/mL, 24 hours", "description": "as §1"}, "[3]": {"tested_on": "insoluble cytoskeletal matrix", "assay": "Cytoskeletal extraction and anti-FLAG immunological analysis", "assay_type": "cell-based", "conditions": "transfected LOX cells, anti-FLAG antibody", "description": "MxA-LOX cells and T103 MxA-LOX cells were subjected to immunological analysis using known techniques (see Choi et al., J. Biol. Chem., 272:28479-28484 (1997)) with an anti-FLAG antibody after cytoskeletal extraction, which removed all the soluble proteins, leaving only cytoskeleton-associated proteins. Cytoskeletal preparations were prepared by permeabilizing the cells with 1% Triton X-100 in PHEM buffer (60 mM piperazine-N-N′-bis(2-ethane-sulfonic acid) (PIPES; pH 6.9), 25 mM N-2-hydroxyethlypiperazine-N′-2-ethanesulfonic acid (HEPES), 2 mM MgCl2, and 10 mM ethylene glycol-bis(b-aminoethyl ether)-N,N,N′N′-tetraacetic acid (EGTA, pH 6.9)) for 2 minutes, fixing the cells with 3.7% formaldehyde for 10 minutes at room temperature (see Hartwig, J. Cell Biol. 118:1421-1442 (1992)). Fixed cells were incubated with appropriate primary and secondary antibodies and the nuclei counterstained with 4,6-daimidino-2-phenylinodole (DAPI). Cells were visualized with a Zeiss Axiophot microscope and images were captured using an Optronics CCD camera.\nTo further investigate the relationship between MxA and microtubules, soluble proteins were extracted from the LOX cells, using standard techniques, and the insoluble cytoskeletal matrix was examined for associated proteins."}, "[4]": {"tested_on": "PC-3M cells", "assay": "Time-lapse video microscopy of cell motility", "assay_type": "cell-based, human", "conditions": "PC-3M-MxA vs PC-3M-β-gal cells, 250 minute recording", "description": "Using time-lapse video microscopy, PC-3M cells stably transfected with an MxA construct (as described in Example 2) were observed and compared to control PC-3M-β-gal cells. Specifically, PC-3M-βgal and PC-3M-MxA cells were seeded in 25 cm^2 flasks and cultured for 24 hours. After 24 hours, the flasks were filled with pre-warmed complete medium and cell motility was observed using by phase-contrast microscopy using an Optronics cooled CCD camera mounted on a Leica DMIRB inverted microscope. During observation, the cells were maintained at 37° C. using an ASI 400 Air Stream Incubator (Nevtek—Burnsville, Va.). Time-lapse video microscopy (250 minute recording converted into 1 minute of playing time) was converted into QuickTime movies using Adobe Premier 5.1."}, "[5]": {"tested_on": "PC-3M cells", "assay": "Primary tumor growth assay", "assay_type": "in vivo, beige/SCID mice", "conditions": "2×10^6 PC3M-MxA cells subcutaneously; β-gal control 29.8±3.4 days", "description": "The effect of MxA expression on tumor growth in vivo was first tested using a primary tumor growth assay. 2×10^6 recombinant PC-3M cells expressing […] MxA (PC3M-MxA) or 2×10^6 recombinant PC-3M-β-gal cells (expressing β-gal) were injected subcutaneously into 30 beige/SCID mice (Charles River Laboratories, Wilmington, Mass.), and the time to formation of a 2-cm subcutaneous tumor (as measured using Vernier calipers) was determined by monitoring the mice at least three times weekly for evidence of tumor development, quantification of tumor size, and evidence of tumor/metastasis-associated morbidity. Subcutaneous tumor size was quantified using Vernier Calipers. Criteria for sacrifice included tumor growth to greater than 2.0 cm, ill thrift, anorexia, dehydration, decreased activity and grooming behavior, and dyspnea."}, "[6]": {"tested_on": "PC-3M cells", "assay": "Experimental hepatic metastasis assay", "assay_type": "in vivo, beige/SCID mice", "conditions": "2×10^6 PC3M-MxA cells into the spleen; β-gal control 23.3±3.3 days", "description": "The in vivo effects of MxA expression on tumor growth and metastatic potential was also tested using an experimental hepatic metastasis assay. Briefly, 2×10^6 cells from the PC3M-MxA cell line and the PC-3M-β-gal cell line were injected into the spleens of beige/SCID mice. Mice were monitored at least three times weekly for evidence of tumor development, quantification of tumor size, and evidence of tumor and/or metastasis-associated morbidity. Animal survival time was determined, and mean survival time was compared between the two treatment groups."}, "[7]": {"tested_on": "LOX cells", "assay": "In vitro invasion, BIOCOAT Matrigel invasion chamber", "assay_type": "cell-based, human", "conditions": "stably transfected LOX cells vs β-gal control LOX cells"}, "[8]": {"tested_on": "actin", "assay": "Coimmunoprecipitation with actin in PC-3 cells", "assay_type": "binding, human", "conditions": "endogenous MxA in PC-3 cells", "description": "(§2) Immunoprecipitation was performed by known techniques (Bang et al., Proc. Natl. Acad. Sci. USA 91:5330-5334 (1994)). Briefly, cell lysates were obtained and incubated with the indicated antibodies overnight at 4° C. The immunocomplex was immobilized on protein A/G-Sepharose (Santa Cruz Biotechnologies), resolved on SDS-polyacrylamide gels, transferred to nitrocellulose filters, and immunoblotted with the indicated antibodies."}, "[9]": {"tested_on": "tubulin", "assay": "Coimmunoprecipitation with anti-α-tubulin and anti-MxA antibodies", "assay_type": "binding", "conditions": "transfected LOX cell lysates", "description": "as §2\nUsing the LOX cells stably transfected with the […] MxA construct, as described in the preceding Examples, whole cell lysates were prepared and immunoprecipitated with anti-α-tubulin antibodies, anti-MxA antibodies, and protein A/protein G-coated Sepharose beads alone, and the resulting compositions were subjected to Western blotting with anti-FLAG antibody (Sigma)."}, "[10]": {"tested_on": "PC-3M cells", "assay": "In vitro motility, migration through 8-μm pore membrane", "assay_type": "cell-based, human", "conditions": "24 hours", "description": "The PC-3M cells of Example 1 were transfected with a pCIneo plasmid (Promega, Madison, Wis.) expressing full-length MxA or a plasmid constructed from pHβ Apr-1 comprising an MxA sequence operably linked to a CMV promoter, and two stable cell lines were selected. PC-3M cells stably transfected with a plasmid expressing β-galactosidase (β-gal) were used as a control. MXA expression was not detected in the PC-3M β-gal cells.\nThe motility of PC-3M transfectants in vitro was tested by measuring the ability of the cells to migrate through pores in a membrane. Briefly, FALCON cell culture inserts with an 8-μm pore-size PET membrane (Fisher Scientific, Franklin Lake, N.J.) were placed into the wells of a 24-well plate, each well containing 0.5 ml of complete medium (RPMI 1640 with 10% FBS, 1% antimycotic-antibiotic solution, and 500 μg mL^−1 G418). Control and MxA-transfected cells were trypsinized, suspended at 1.5×10^5 cells/ml in complete medium, and 350μl of the cell suspension was added to each insert. Following incubation for 24 hours at 37° C., cells from the upper surface of the membrane were removed by scrubbing with a cotton swab. Cells that had migrated through the insert and adhered to the bottom of the membrane were Wright stained using the CAMCO Quik Stain kit (Fisher Scientific), visualized using a Zeiss Axiophot microscope or Leica DMIRB microscope, and counted."}},
  "note": "Where a chain is given by its changes, count along the chain named. Entries after “also recorded” stand apart in the source; their conditions may differ.",
  "data": [
    {"molecule": "IFN-α", "values": [
      {"measurement": "level of MxA protein after exposure to IFN-α", "setting": "[1]", "value": "increased substantially"},
      {"measurement": "level of MxA protein after exposure to IFN-α", "setting": "[2]", "value": "became detectable"}
    ]},
    {"molecule": "B1", "values": [
      {"measurement": "association with insoluble cytoskeletal matrix after cytoskeletal extraction", "setting": "[3]", "value": "remained bound to the matrix"},
      {"measurement": "mobility of PC-3M cells by visual observation", "setting": "[4]", "value": "significantly inhibited"},
      {"measurement": "time to develop a 2-cm tumor mass", "setting": "[5]", "value": "46.8 ± 9.9", "unit": "days"},
      {"measurement": "survival", "setting": "[6]", "value": "54.3 ± 11.2", "unit": "days"},
      {"measurement": "in vitro invasive activity, % of control cells", "setting": "[7]", "value": 15.1, "unit": "%"},
      {"measurement": "co-immunoprecipitation with actin", "setting": "[8]", "value": "did not co-immunoprecipitate"},
      {"measurement": "association with tubulin by coimmunoprecipitation", "setting": "[9]", "value": "associated with cell microtubules and particularly tubulin; also recorded: detected in the complex with tubulin"},
      {"measurement": "motility, % of the β-gal control cells", "setting": "[10]; PC-3M stably expressing MxA, lowest level seen", "value": 24.3, "unit": "%"},
      {"measurement": "motility, % lower than the β-gal control cells", "setting": "[10]; all MxA-expressing PC-3M cells, both cases tested", "value": "at least 22.4%"}
    ]},
    {"molecule": "B2", "values": [
      {"measurement": "association with insoluble cytoskeletal matrix after cytoskeletal extraction", "setting": "[3]", "value": "undetectable; also recorded: washed out of the insoluble preparation"},
      {"measurement": "in vitro invasive activity, % of control cells", "setting": "[7]", "value": 119, "unit": "%"},
      {"measurement": "association with tubulin by coimmunoprecipitation", "setting": "[9]", "value": "did not associate"}
    ]}
  ]
}
